What was measured:
[1] = target: huBCMA-Fc (soluble human BCMA-Fc receptor fusion protein) (human); assay: BIAcore 2000; BCMA-Fc immobilised on CM5, Flag-APRIL as analyte, 1:1 Langmuir model
[2] = target: mBCMA-Fc (soluble murine BCMA-Fc) (mouse); assay: as above

Kd [1]: 0.29 nM
Kd [2]: 0.25 nM
Substance: Soluble murine APRIL-Flag protein (FLAG-tagged soluble mouse G70) (ligand)
